Measured values taken from patent publication US5733879A, “Peptides and proteins, process for their preparation and their use as cholesterol acceptors” (N.V. Innogenetics, S.A., priority 1992, dated 1998).
Values joined by “and” are separate entries in the source; they are usually repeats but may differ in a detail not shown here. Equal entries are not always repeated. Where no end group is shown, it is not given here.

What was measured:
[1] = Turbidity decrease at 325 nm on complex formation with DMPC vesicles (lipid binding); details: from turbidity decrease with DMPC vesicles, 15-25° C.
Procedure: FIG. 1 represents the turbidity decrease (on the y-axis, expressed as E/Eo, with E being the turbidity measured at different temperature points and Eo being the turbidity measured at 15° C.) at 325 nm upon the formation of complexes with DMPC vesicles as a function of the temperature (°C.), (x-axis) and on which:
The formation of small discoidal particles between DMPC vesicles and the peptides was monitored by measuring the turbidity decrease at 325 nm as a function of temperature. […] The turbidity decrease initiated by the peptide-lipid association started already at 17° C., below the DMPC transition temperature and stabilized around 23° C. The turbidity decrease enables to determine the binding affinity of lipids to the peptides of the invention. M 1 has a strong lipid binding capacity while 18A and M4 have quite similar lipid binding affinity. The lipid binding of M3 is low compared with the other peptides.

[2] = Percentage of alpha-helix structure by ATR infrared spectroscopy; assay type: physicochemical; details: for percentage of alpha-helix structure, peptide, IR: free peptide; for percentage of alpha-helix structure, DMPC/peptide, IR: phospholipid-peptide (DMPC) complex
Text: Table 1: corresponds to the percentage of alpha-helix structure in the free peptide and in the phospholipid-peptide (DMPC) complexes as determined by infrared spectroscopy (IR) and circular dichroism (CD).
(§1) Attenuated Total Reflection (ATR) infrared spectroscopy was used for the determination of the relative orientation of the apolipoprotein alpha-helical segments and of the phospholipid acyl chains as previously described for apo AI and apo AI-phospholipid complexes and for LDL (Vanloo et at., 1991). For these measurements, a 70 μL solution of 20 μg isolated complex in a 0.005M Tris-HCl buffer pH 8.4, was spread on a ATR Germanium crystal plate. Deuteration of the sample was performed by flushing N2, saturated with D2 O, in a sealed universal Perkin-Elmer sample holder, at room temperature for 3 hours, in order to avoid overlapping of the absorption bands for random and alpha-helical structures.
(§2) Spectra were recorded on a Perkin Elmer 1720X infrared spectrophotometer, using polarized incident light with a perpendicular (90°) and parallel (0°) orientation. A dichroic spectrum was obtained by substracting the spectrum recorded with polarized light at 0° from that at 90°. A positive deviation on the dichroic spectrum indicates a dipole preferentially oriented close to a normal to the plane, while a larger absorbance at 0° is indicative of a dipole oriented close to the Ge crystal plane. The angle between a normal to the Ge crystal and the dipole is obtained from the calculation of the dichroic ratio Ratr =A(90°)/A(0°), representing the ratio of the absorbances on the spectra recorded with polarized light at 90° and 0° . For each experiment, up to 15 scans were stored and averaged.

[3] = Orientation of helices and acyl chains by polarized ATR infrared spectroscopy; assay type: physicochemical; details: peptide-DMPC complexes
Procedure: as §1, §2
In order to determine the orientation of the alpha-helices with respect to the DMPC bilayer, ATR infrared spectra of DMPC and of the isolated peptide-DMPC complexes were recorded at two orthogonal linear polarizations of the incident light. […] This value is close to that measured for the apo AI-DMPC complex (Vanloo et al.,1991), and higher than that for pure DMPC. For the M1, M2, M3 and M4 peptide-DMPC complexes, the corresponding angles between the peptide and an axis perpendicular to the Ge plane are respectively 25°, 25°, 34° and 31°.

J774 murine macrophages = experiment: Cellular cholesterol efflux from lipid-loaded macrophages; assay type: cell-based; details: for Vmax (cholesterol efflux): phospholipid-peptide complexes, cholesterol-loaded J774 cells, 24 h; for efflux of free cholesterol into the medium: protein concentration of the complex in the medium 100 μg/ml, 24 h incubation
Procedure: J774 murine macrophages are grown in DMEM (Gibco) with addition of 10% fetal calf serum (FCS), in a 5% CO2 atmosphere. Cells are seeded in 35 mm dishes at a density of 2×10^6 /dish, grown for 18 h in 2ml DMEM-10% FCS and used as confluent monolayers. After 18 h, the cells are washed twice with DMEM and incubated with acetylated LDL at a concentration of 100 μg apo B/ml for 24 h in a medium consisting of DMEM and 10% lipoprotein deficient serum (LPDS). LPDS is prepared from fetal cell serum (Gibco) by eliminating all lipoproteins by ultracentrifugation. After loading with cholesteryl esters, cell monolayers are washed with DMEM.
The cholesteryl ester-laden cells are incubated in 2 ml DMEM supplemented with 1 g/l bovine serum albumin and containing the Sandoz 58-035 compound at a concentration of 1 μg/ml medium as inhibitor of the acyl-CoA:cholesterol acyl transferase enzyme (ACAT) in order to prevent the re-esterification of the cellular cholesterol (Brown et at., 1980). The cholesterol acceptors, i.e. the discoidal peptide-lecithin complexes were added to the medium at concentrations varying between 10 and 200 μg peptide/ml and cells were incubated for 24 h.
After incubation, cells are washed once with phosphate buffer pH 7.4, 0.15N NaGl (PBS) containing 2 g/l BSA and twice with PBS alone. Lipid extracts are prepared by addition to the cell pellet of 5 ml hexane/isopropylalcohol (3:2) (Phillips et at., 1987). Fifty μl of a cholesteryl heptadecanoate solution in chloroform at a concentration of 500 μg/ml are added as internal standard for the HPLC quantitation of cholesteryl esters. After vortex-mixing for 3 min and centrifugation at 3000 rpm for 15 rain, the organic phase supernatant is dried, the precipitate is dissolved in 1 ml chloroform and washed three times. The dry residue is finally dissolved in 50 μl of a mixture of chloroform:acetonitrile:isopropylalcohol (1:1:1), of which 20 μl are injected into the HPLC system.
The same extraction procedure is applied to 1 ml of the medium. For quantification of the unesterified cholesterol fraction, beta-sitosterol is used as internal standard according to methods known in the art.
After delipidation, cellular proteins were dissolved in 0.1M NaOH and the proteins were assayed either by the method of Lowry (Lowry et al., 1951) or with the bicinchoninic acid (BCA) reagent using a kit for protein assay manufactured by Pierce (Pierce Europe, oud-Beijerland, Holland). In both cases bovine serum albumin was used as a standard.

[4] = GdmCl denaturation followed by Trp maximal emission wavelength; assay type: physicochemical; details: free peptide or protein
[5] = Trp fluorescence emission of peptides and complexes; assay type: physicochemical; details: for Trp maximal emission wavelength, free: free peptide or protein; for Trp maximal emission wavelength upon phospholipid binding: in the phospholipid complex
Procedure: The measurement of the Trp fluorescence emission in the peptides and in the complexes was used to monitor complex formation. The fluorescence measurements were performed on an Aminco SPF-500 spectrofluorimeter equipped with a special adapter (Aminco-J4-9501) for the fluorescence polarisation measurements. The fluorescence polarization of the lipid-peptide complexes labelled with diphenyl hexatriene (DPH) (molar ratio of 500:1 lipid:DPH) was measured as a function of the temperature to detect changes in the fluidity of the phospholipid acyl chains due to lipid-peptide association. The excitation wavelength was set at 365 nm and emission was detected at 427 nm. Temperature scans between 15° and 40° C. were performed with a circulating water bath (Julabo) at a rate of 0.6° C./min.

Row | Substance | lipid binding capacity / affinity [1] | percentage of alpha-helix structure, peptide, IR [2] | percentage of alpha-helix structure, DMPC/peptide, IR [2] | angle between the peptide and an axis perpendicular to the Ge plane [3] | Vmax (cholesterol efflux) (J774 murine macrophages) | efflux of free cholesterol into the medium (J774 murine macrophages) | midpoint of the GdmCl denaturation transition, free peptide [4] | Trp maximal emission wavelength, free [5] | Trp maximal emission wavelength upon phospholipid binding [5]
1 | EWLEAFYKKVLEKLKELF [M4] | quite similar | 35% | 58% | 31 ° | 50 μg cholesterol released from t | 20 µg | around 0.1 M | – | –
2 | EWLKAEYEKVEEKLKELF [M3] | low | 43% | 61% | 34 ° | 77 μg cholesterol released from t | – | around 0.1 M | – | –
3 | EWLKAEYEKVLEKLKELF [M2] | – | 36% | 50% | 25 ° | 48 μg cholesterol released from t | – | immediately | 353 nm | 342 nm
4 | EWLKAFYKKVLEKLKELF [M1] | strong | 29% | 50% | 25 ° | 111 μg cholesterol released from t | – | around 0.3 M | 341 nm | 335 nm
5 | apo AI: native plasma apo AI purified from human plasma; major apoprotein constituent of HDL | – | 39% | 49% | – | 52 μg cholesterol released from t | ~8 µg | 1.3 M | 333 nm and 338 nm | 329 nm
